Experimental data taken from PMC4245193.

System: stable placental multi-protein complex SPC-1 (donor 1) (Homo sapiens (placenta, donor 1))
Assay: tryptophan fluorescence quenching titration (Scatchard)
Settings: 5' phosphate as printed (pT), 20 mM Tris-HCl pH 7.5, 150 mM NaCl, 0.3 mg/ml SPC, 25 C, excitation 283 nm, emission 338 nm

In the case of TAGAAGATCAAA [12-mer ODN], the Kd (high-affinity site (Kd1)) is reported as 36 nM and the Kd (low-affinity site (Kd2)) is reported as 2600 nM.
